Results from paper PMC5963871, “Regulation and function of H3K36 di-methylation by the trithorax-group protein complex AMC” (Development (Cambridge, England), 2018).

T1: Drosophila Ash1_(XL-SET) (Ash1_(1275-1522)) (Drosophila, UniProt Q9VW15 1275-1522)
T1 sequence (looked up): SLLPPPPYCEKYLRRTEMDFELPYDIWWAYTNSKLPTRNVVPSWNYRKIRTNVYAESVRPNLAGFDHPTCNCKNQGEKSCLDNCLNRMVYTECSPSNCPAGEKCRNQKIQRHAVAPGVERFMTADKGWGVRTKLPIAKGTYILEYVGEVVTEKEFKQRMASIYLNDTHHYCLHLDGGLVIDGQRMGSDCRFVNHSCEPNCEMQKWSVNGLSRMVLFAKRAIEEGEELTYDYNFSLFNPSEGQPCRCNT


Assays:
[1] = biological target: T1, Drosophila Ash1_(XL-SET) …; assay: cell-based or functional assay
[2] = biological target: human ASH1L_(XL-SET) (ASH1L_(2035-2288)) (human, UniProt Q9NR48 2035-2288); assay: cell-based or functional assay

Row | Binder | HMTase activity on recombinant oligonucleosome arrays (methyl-3H incorporation into histone H3, fluorography): Ash1_(XL-SET):MRG15 complex compared with Ash1_(XL-SET) alone [1] [fold] | HMTase activity on recombinant oligonucleosome arrays (methyl-3H incorporation into histone H3, fluorography): ASH1L_(XL-SET):MRG15MRG complex compared with ASH1L_(XL-SET) alone [2] [fold]
1 | Drosophila full-length MRG15 (E. coli) (natural protein, UniProt Q9Y0I1 1-424, looked up) MGEVKPAKVENYSTGTDANTLFVDGERVLCFHGPLIYEAKVLKTKPDATPVEYYIHYAGWSKNWDEWVPENRVLKYNDDNVKRRQELARQCGERSKKDNKKGSAKAKKMEQMRNESRASTPSKDSNTSQSTASSTPTTSAGPGSKSEAGSTGTTTTNSTANSTTSRAHRKSTQSTPSTARPGTPSDKKEDPAAAETTEEEGPVAPKKKRMSEQRPSLTGSDVAEKPLPPTTTPSTPTTEPAPCVESEEAYAAKVEVKIKIPDELKHYLTDDWYAVVREHKLLELPAKVTVQQISEQYLAHKKSVKSTSASKEVAINDVLDGIVEYFNVMLGSQLLYKFERTQYADVMQKHPDTPLSELYGSFHLLRLFVRLGSMLSYSALDQQSMQNLLTHVQDFLKFLVKNSSIFFSMSNFINVDPEYVRNAQ | ~30 | –
2 | MRG domain of human MRG15 (MRG15_(151-362), MRG15MRG) (domain or fragment) KNKQKTPGNGDGGSTSETPQPPRKKRARVDPTVENEETFMNRVEVKVKIPEELKPWLVDDWDLITRQKQLFYLPAKKNVDSILEDYANYKKSRGNTDNKEYAVNEVVAGIKEYFNVMLGTQLLYKFERPQYAEILADHPDAPMSQVYGAPHLLRLFVRIGAMLAYTPLDEKSLALLLNYLHDFLKYLAKNSATLFSASDYEVAPPEYHRKAV | – | ~7
